# Measurements taken from article PMC12302718, “Molecular basis for Gβγ-SNARE-mediated inhibition of synaptic vesicle fusion” (The Journal of Biological Chemistry, 2025).
# Where no end group is shown, it is not given here.
# Target: T1, His-tagged soluble Gβ1γ2 (C68S) (UniProt P62873;P59768, C68S)
# T1 construct: G-protein subunit β1 (Gβ1); G-protein subunit γ2 (Gγ2) with C68S (soluble); it is entered on Gβ1; For MST the His tag was labelled with Red-tris-NTA; also called full-length Gβ1γ2; His6-Gβ1γ2; source: Sf9 cells, purified as previously described (69)
# Test: AlphaScreen or HTRF; competition: Nb5 0.4 nM-1.26 μM; biotinylated SNAP25 with an EC80 concentration of His-tagged Gβ1γ2
# Details: both partners purified
row,IC50,Binder
1,24.6 nM,"Nanobody-5 (Nb5) (VHH, as the chain of m17; source: expressed and purified as described previously (53); plasmid a gift of the Palczewski laboratory) VHH: QVQLVESGGGLVQAGGSLRLSCAASGSIFSINAMGWYRQAPGKQRELVAAITRGGRTNYADSVKGRFTLSRDNAKNTVYLQMNSLKPEDTAVYYCNVGRSRGYWGQGTQVTVSS"

# Target: T1, His-tagged soluble Gβ1γ2 (C68S)
# Test: AlphaScreen or HTRF; direct binding: 20 nM biotinylated Nb5 with 0.1 nM-1 μM His-tagged Gβ1γ2; concentration-response curves fitted for EC50
# Details: both partners purified
row,EC50,Binder
1,3.72 nM,"biotinylated Nb5 (VHH, also called Nanobody-5; source: expressed and purified as described previously (53); plasmid a gift of the Palczewski laboratory) VHH: QVQLVESGGGLVQAGGSLRLSCAASGSIFSINAMGWYRQAPGKQRELVAAITRGGRTNYADSVKGRFTLSRDNAKNTVYLQMNSLKPEDTAVYYCNVGRSRGYWGQGTQVTVSS"

# Target: T2, biotinylated SNAP25 (UniProt P60880 1-206, biotin (site not stated))
# T2 construct: SNAP25, wild type; also called full-length SNAP25; synaptosomal-associated protein-25; source: expressed and purified as described (12, 39)
# Test: AlphaScreen or HTRF; competition: Gγ peptides 1 nM-100 μM; 20 nM biotinylated SNAP25 on streptavidin donor beads, 180 nM His6-Gβ1γ2 on nickel chelate acceptor beads; 20 mM HEPES pH 7.0, 10 mM NaCl, 40 mM KCl, 5% glycerol, 0.01% Triton X-100; 27 °C
# Details: both partners purified
row,Binder,IC50
1,"TPVPASENPFREKKF (on the array: C-terminus coupled to the membrane, Gγ2, human, residues 52-66; also called Gγ2 peptide 18 (by the array's scheme of 15-mers shifted by three); source: synthetic peptide: SPOT array on membrane (ResPep SL)) [Gγ2, res. 52–66 peptide]",12600 nM
2,"MPVINIEDLTEKDKL (Gγ1, human, residues 1-15; also called Gγ1 N-terminal peptide; source: peptide stock in DMSO) [Gγ1, res. 1–15 peptide]",> 100000 nM
3,"STNNIAQARRTVQQL (on the array: C-terminus coupled to the membrane, Gγ12, human, residues 7-21; source: synthetic peptide: SPOT array on membrane (ResPep SL)) [Gγ12, res. 7–21 peptide]",2910 nM
4,"ITPVPTSENPFREKK (on the array: C-terminus coupled to the membrane, Gγ3, human, printed as residues 56-70; source: synthetic peptide: SPOT array on membrane (ResPep SL)) [Gγ3, res. 56–70 peptide]",7010 nM

# Other lines, results leading:
row,IC50,Binder
1,1720 nM,"LTGVSSSTNPFRPQK (on the array: C-terminus coupled to the membrane, Gγ5, human, residues 49-63; source: synthetic peptide: SPOT array on membrane (ResPep SL)) [Gγ5, res. 49–63 peptide]"
2,430 nM,"GASASALQRLVEQLK (on the array: C-terminus coupled to the membrane, Gγ10, human, residues 4-18; source: synthetic peptide: SPOT array on membrane (ResPep SL)) [Gγ10, res. 4–18 peptide]"
3,4040 nM,"IGQARKMVEQLKIEA (also: C-terminus coupled to the membrane, Gγ3, human, residues 13-27; source: synthetic peptide: SPOT array on membrane (ResPep SL)) [Gγ3, res. 13–27 peptide]"
4,9460 nM,"LKYQLAFQREMASKT (on the array: C-terminus coupled to the membrane, Gγ13, human, residues 16-30; source: synthetic peptide: SPOT array on membrane (ResPep SL)) [Gγ13, res. 16–30 peptide]"
5,540 nM,"MASNNTASIAQARKL (on the array: C-terminus coupled to the membrane, Gγ2, human, residues 1-15; also called Gγ2 N-terminal peptide; Gγ2 amino-terminal peptide; source: synthetic peptide: SPOT array on membrane (ResPep SL)) [Gγ2, res. 1–15 peptide]"
6,640 nM,"PVPAAENPFRDKRLF (on the array: C-terminus coupled to the membrane, Gγ8, human, residues 52-66; source: synthetic peptide: SPOT array on membrane (ResPep SL)) [Gγ8, res. 52–66 peptide]"

# Target: T3, His-tagged soluble Gβ1γ2 (C68S) (UniProt P62873 1-340; P59768 1-71, C68S)
# T3 construct: G-protein subunit β1 (Gβ1); G-protein subunit γ2 (Gγ2) with C68S (soluble); it is entered on Gβ1; For MST the His tag was labelled with Red-tris-NTA; also called full-length Gβ1γ2; His6-Gβ1γ2; source: Sf9 cells, purified as previously described (69)
# Test: AlphaScreen or HTRF; competition: SNAP25 C-terminal peptide (189-206) against biotinylated full-length SNAP25 for His6-Gβ1γ2
# Details: both partners purified
row,IC50,Binder
1,1840 nM,"KTRIDEANQRATKMLGSG (peptide, UniProt P60880 189-206, looked up, also called C-terminal SNAP25 peptide) [SNAP25 C-terminal peptide (residues 189–206)]"
